Experimental data as given in patent EP4585619A1 (Cichlid Inc., dated 2025).
Positions count from the first letter of the chain named.

T1: human VISTA protein overexpressed in the NIH/3T3 cell line (human, UniProt Q9H7M9 33-311)
T1 construct: whole, on cells; Gene cloned into pCMV3-C-FLAG (Sino Biological), so a C-terminal FLAG tag is likely; On whole cells in ELISA and flow cytometry; as sonicated lysate in immunoprecipitation; as reduced, boiled RIPA lysate in the western blot; also called VISTA/NIH/3T3 cell line; VISTA-expressing cell line
T1 sequence (looked up): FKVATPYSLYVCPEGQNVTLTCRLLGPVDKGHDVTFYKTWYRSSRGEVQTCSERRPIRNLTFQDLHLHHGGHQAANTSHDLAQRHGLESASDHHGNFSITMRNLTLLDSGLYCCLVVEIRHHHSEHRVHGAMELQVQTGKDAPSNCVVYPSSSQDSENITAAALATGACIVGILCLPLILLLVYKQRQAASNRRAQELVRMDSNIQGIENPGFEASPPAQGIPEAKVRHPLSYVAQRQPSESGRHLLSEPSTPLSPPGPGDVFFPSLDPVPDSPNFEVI

T2: mouse VISTA protein (mVISTA-Fc, R&D Systems, Cat. No. 7005-B7) (mouse, UniProt Q9D659 33-191)
T2 construct: Bought recombinant protein; not shown: Fc part of the bought fusion protein
T2 sequence (looked up): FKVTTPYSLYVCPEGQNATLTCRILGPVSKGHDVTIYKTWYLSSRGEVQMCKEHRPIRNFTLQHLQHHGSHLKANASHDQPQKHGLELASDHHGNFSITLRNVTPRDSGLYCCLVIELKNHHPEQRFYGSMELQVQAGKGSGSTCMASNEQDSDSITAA

T3: human VISTA protein (hVISTA-Fc, R&D Systems, Cat. No. 7126-B7) (human, UniProt Q9H7M9 33-194)
T3 construct: Bought recombinant protein; not shown: Fc part of the bought fusion protein
T3 sequence (looked up): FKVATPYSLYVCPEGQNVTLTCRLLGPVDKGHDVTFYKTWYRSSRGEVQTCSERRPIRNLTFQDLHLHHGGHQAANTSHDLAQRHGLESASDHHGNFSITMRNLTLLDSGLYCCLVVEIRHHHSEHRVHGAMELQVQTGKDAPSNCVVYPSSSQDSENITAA

B1: 4H2 scFv (scFv, V domains shown)
VH: EVQLLESGGGLVQPGGSLRLSCAASGFTFSTAWMSWVRQAPGKGLEWVSRVNPSDSHTDYSPSFQDRFTISRDNSKNTLYLQMNSLRAEDTAVYYCARVPPGYGFDIWGQGTLVTVSS
VL: EIVLTQSPGTLSLSPGERATLSCQASQDITNYLNWYQQKPGQAPRLLIYDASNRATGIPDRFSGSGSGTDFTLTISRLEPEDFAVYYCQQSYSTPFTFGQGTKVEIK
notes: One-chain scFv with an HA tag from a synthetic human scFv library, made in E. coli
B2: 4G3 scFv (scFv, V domains shown)
VH: EVQLLESGGGLVQPGGSLRLSCVASGFTFSEKSIHWVRQAPGKGLEWVSGTSANTGNTYYADSVKGRFTISRDNSKNTLYLQMNSLRAEDTAVYYCAHHNWAGYFDYWGQGTLVTVSS
VL: B1 VL with T10I, Q27H, D28A, T30S, L33I, Y92N, T94F, F96Y
notes: as for B1
B3: 4A2 scFv (scFv, V domains shown)
VH: EVQLLESGGGLVQPGGSLRLSCAASGFTFSNYAMSWVRQAPGKGLEWVSEISHSGTTNYNPSLKSRFTISRDNSKNTLYLQMNSLRAEDTAVYYCTRAIWGFDYWGQGTLVTVSS
VL: QSVLTQPPSASGTPGQRVTISCSRENIGSRSVHWYQQLPGTAPKLLIYDNNERASGVPNRFSGSKSGTSASLAISGLRSEDEADYYCQAWDSSTAVFGGGTKLTVL
notes: as for B1
B4: 4F2 scFv (scFv, V domains shown)
VH: EVQLLESGGGLVQPGGSLRLSCAASGFTFSDYYMHWVRQAPGKGLEWVSEIIPIFDTANYAQKFQDRFTISRDNSKNTLYLQMNSLRAEDTAVYYCARSTGDYFDYWGQGTLVTVSS
VL: QSVLTQPPSASGTPGQRVTISCSGDKLGNKYTSWYQQLPGTAPKLLIYDNNKRPSGVPDRFSGSKSGTSASLAISGLRSEDEADYYCGTWDSSLSAYVFGGGTKLTVL
notes: as for B1
B5: 4A3 scFv (scFv, V domains shown)
VH: EVQLLESGGGLVQPGGSLRLSCAASGFTFSNYYMHWVRQAPGKGLEWVSSISFTGSTSYNPSLKSRFTISRDNSKNTLYLQMNSLRAEDTAVYYCARLGIPFFTYLDYWGQGTLVTVSS
VL: QSVLTQPPSASGTPGQRVTISCGGNNIGSKSVHWYQQLPGTAPKLLIYEDTERPSGVSDRFSGSKSGTSASLAISGLRSEDEADYYCQAWDSSTVVFGGGTKLTVL
notes: as for B1
B6: 4D2 scFv (scFv, V domains shown)
VH: EVQLLESGGGLVQPGGSLRLSCAASGFTFSSYWIAWVRQAPGKGLEWVSTISGSGGYTYYAESVKGRFTISRDNSKNTLYLQMNSLRAEDTAVYYCARDSSGWLNYWGQGTLVTVSS
VL: EIVLTQSPGTLSLSPGERATLSCRASQSITSHLAWYQQKPGQAPRLLIYDASNRATGIPDRFSGSGSGTDFTLTISRLEPEDFAVYYCQQYNNWPPITFGQGTKVEIK
notes: as for B1
B7: 4G3 full IgG1 antibody (antibody, V domains shown)
VH: B2 VH
VL: EIVLTQSPGILSLSPGERATLSCQASHAISNYINWYQQKPGQAPRLLIYDASNRATGIPDRFSGSGSGTDFTLTISRLEPEDFAVYYCQQSNSFPYTFGQGTKVEIKR
notes: scFv clone converted to full IgG1, made in CHO-S cells; also called anti-VISTA antibody
B8: 4H2 full IgG1 antibody (antibody, V domains shown)
VH: B1 VH
VL: B7 VL with I10T, H27Q, A28D, S30T, I33L, N92Y, F94T, Y96F
notes: as for B7
B9: 4A2 full IgG1 antibody (antibody, V domains shown)
VH: B3 VH
VL: QSVLTQPPSASGTPGQRVTISCSRENIGSRSVHWYQQLPGTAPKLLIYDNNERASGVPNRFSGSKSGTSASLAISGLRSEDEADYYCQAWDSSTAVFGGGTKLTVLR
notes: scFv clone converted to full IgG1, made in CHO-S cells; also called 4A2 antibody; anti-VISTA antibody
B10: 4F2 full IgG1 antibody (antibody, V domains shown)
VH: B4 VH
VL: QSVLTQPPSASGTPGQRVTISCSGDKLGNKYTSWYQQLPGTAPKLLIYDNNKRPSGVPDRFSGSKSGTSASLAISGLRSEDEADYYCGTWDSSLSAYVFGGGTKLTVLR
notes: as for B7
B11: 4A3 full IgG1 antibody (antibody, V domains shown)
VH: B5 VH
VL: QSVLTQPPSASGTPGQRVTISCGGNNIGSKSVHWYQQLPGTAPKLLIYEDTERPSGVSDRFSGSKSGTSASLAISGLRSEDEADYYCQAWDSSTVVFGGGTKLTVLR
notes: as for B7
B12: 4D2 full IgG1 antibody (antibody, V domains shown)
VH: B6 VH
VL: EIVLTQSPGTLSLSPGERATLSCRASQSITSHLAWYQQKPGQAPRLLIYDASNRATGIPDRFSGSGSGTDFTLTISRLEPEDFAVYYCQQYNNWPPITFGQGTKVEIKR
notes: as for B7

What follows are binders tested against T1, human VISTA protein overexpressed in … (assay: cell ELISA of scFv on VISTA-expressing NIH/3T3 cells, anti-HA HRP).
B1: binds. B2: binds. B3: binds. B4: binds. B5: binds. B6: binds.

These binders were tested against T2, mouse VISTA protein (mVISTA-Fc, R&D …) (assay: ELISA on coated mVISTA-Fc).
B7: no binding (tested: 100 ng per well). B8: no binding (tested: 100 ng per well). B9: no binding (tested: 100 ng per well). B10: no binding (tested: 100 ng per well). B11: no binding (tested: 100 ng per well). B12: no binding (tested: 100 ng per well).

These binders were tested against T3, human VISTA protein (hVISTA-Fc, R&D …) (assay: ELISA on coated hVISTA-Fc, antibody at 100 ng per well).
B7: binds. B8: binds. B9: binds. B10: binds. B11: binds. B12: binds.
